Groups on a side chain read outwards from the residue. No end group written: not given here. *: point of attachment. triazole = 1,2,3-triazole formed by click reaction linking the lysine-side-chain spacer to the azidoethyl glycoside; Palmitoyl = CCCCCCCCCCCCCCCC(=O)*
Biological target: recombinant human BMP-2 obtained from Medtronic Sofamor Danek (human, UniProt P12643 283-396)
Assay: cell-based or functional assay

Sequence of recombinant human BMP-2 obtained from Medtronic Sofamor Danek (P12643 283-396 limits assumed): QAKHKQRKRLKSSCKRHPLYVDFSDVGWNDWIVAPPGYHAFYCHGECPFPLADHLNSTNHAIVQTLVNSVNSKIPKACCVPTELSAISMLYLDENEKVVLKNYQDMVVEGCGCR

Binder: Palmitoyl-VVAAEEK([COCH2(O(CH2)2)2NHCO(CH2)2-triazole-ethyl-2‑acetamido‑3,4,6‑tri‑O‑sulfo‑2‑deoxy‑beta‑D‑glycopyranoside]) (also: self-assembled nanofibers) [3,4,6S-GlcNAc PA (PA 1) nanofibers]
- ALP activity in C2C12 cells treated with BMP-2 (75 ng/mL) and PA nanofibers (25 uM): 9 fold
